Experimental data published in patent US20050282743A1, “Molecular interactions in cells” (Arbor Vita Corporation, priority 2001, published 2005).
Ends that are not written are not given here. Peptide text beside a SMILES is read from it. * marks the point of attachment. Biotin = O=C1N[C@H]2[C@H](CS[C@H]2CCCCC(=O)*)N1

Assays:
Test in all cases: G' assay (10 uM PL peptide), results of TABLE 7 and TABLE 12
Assay type in all cases: binding
[1] = biological target: T1, PDZ protein (GST-PDZ fusion) (Homo sapiens, UniProt Q9C0E4)
T1 construct: made in house; host or cells: E. coli (DH5alpha, BL21 or JM109)
Method in brief: (§1)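 Binding classes derive from A450 nm of bound biotin-tagged PL peptide. A score of 5 needs A450 above 4 in more than two repeats.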

[2] = biological target: T2, PDZ protein (GST-PDZ fusion) (Homo sapiens, UniProt Q8TEW0); details: PDZ PAR3, PDZ Domain 3
T2 construct: made in house; host or cells: E. coli (DH5alpha, BL21 or JM109)
Method in brief: as §1

[3] = biological target: T3, PDZ protein (GST-PDZ fusion) (Homo sapiens, UniProt O14908); details: PDZ TAX IP2, PDZ Domain 1
T3 construct: made in house; host or cells: E. coli (DH5alpha, BL21 or JM109)
T3 sequence (O14908 1-333): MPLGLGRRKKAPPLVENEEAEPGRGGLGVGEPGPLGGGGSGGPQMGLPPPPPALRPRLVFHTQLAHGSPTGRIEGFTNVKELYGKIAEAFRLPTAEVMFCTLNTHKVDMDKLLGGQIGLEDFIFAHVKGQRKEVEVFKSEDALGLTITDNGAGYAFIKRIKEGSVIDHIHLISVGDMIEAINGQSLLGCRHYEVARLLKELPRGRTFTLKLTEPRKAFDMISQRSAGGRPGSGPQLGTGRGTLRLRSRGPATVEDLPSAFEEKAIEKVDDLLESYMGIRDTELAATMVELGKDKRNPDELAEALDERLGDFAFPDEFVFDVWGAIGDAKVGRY
Method in brief: as §1

T1 sequence (Q9C0E4 whole entry, the tested form may be a part): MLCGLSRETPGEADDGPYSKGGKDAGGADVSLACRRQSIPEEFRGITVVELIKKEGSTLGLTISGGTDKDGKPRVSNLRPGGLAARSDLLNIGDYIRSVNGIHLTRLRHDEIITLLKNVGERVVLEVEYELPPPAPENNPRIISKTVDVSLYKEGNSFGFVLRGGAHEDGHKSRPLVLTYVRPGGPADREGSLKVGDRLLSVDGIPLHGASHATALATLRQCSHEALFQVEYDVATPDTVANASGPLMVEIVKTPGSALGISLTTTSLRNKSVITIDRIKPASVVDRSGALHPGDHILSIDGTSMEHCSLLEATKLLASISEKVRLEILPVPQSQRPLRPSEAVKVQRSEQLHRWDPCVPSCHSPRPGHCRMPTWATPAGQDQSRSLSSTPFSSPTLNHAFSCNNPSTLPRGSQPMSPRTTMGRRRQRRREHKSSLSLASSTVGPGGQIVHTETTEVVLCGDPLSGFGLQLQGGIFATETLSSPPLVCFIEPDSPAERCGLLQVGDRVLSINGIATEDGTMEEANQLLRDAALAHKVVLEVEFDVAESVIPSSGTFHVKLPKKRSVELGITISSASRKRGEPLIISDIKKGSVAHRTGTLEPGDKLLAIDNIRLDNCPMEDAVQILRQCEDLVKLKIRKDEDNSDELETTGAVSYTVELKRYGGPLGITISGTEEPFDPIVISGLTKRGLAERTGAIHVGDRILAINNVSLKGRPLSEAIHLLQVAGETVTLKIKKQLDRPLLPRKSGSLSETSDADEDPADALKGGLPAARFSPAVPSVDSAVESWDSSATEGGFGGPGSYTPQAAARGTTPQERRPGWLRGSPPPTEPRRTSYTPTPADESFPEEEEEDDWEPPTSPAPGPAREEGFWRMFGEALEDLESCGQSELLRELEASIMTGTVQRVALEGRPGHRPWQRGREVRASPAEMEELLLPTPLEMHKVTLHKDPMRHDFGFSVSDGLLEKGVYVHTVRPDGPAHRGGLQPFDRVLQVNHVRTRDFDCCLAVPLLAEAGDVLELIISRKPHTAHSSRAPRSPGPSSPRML
T2 sequence (Q8TEW0 whole entry, the tested form may be a part): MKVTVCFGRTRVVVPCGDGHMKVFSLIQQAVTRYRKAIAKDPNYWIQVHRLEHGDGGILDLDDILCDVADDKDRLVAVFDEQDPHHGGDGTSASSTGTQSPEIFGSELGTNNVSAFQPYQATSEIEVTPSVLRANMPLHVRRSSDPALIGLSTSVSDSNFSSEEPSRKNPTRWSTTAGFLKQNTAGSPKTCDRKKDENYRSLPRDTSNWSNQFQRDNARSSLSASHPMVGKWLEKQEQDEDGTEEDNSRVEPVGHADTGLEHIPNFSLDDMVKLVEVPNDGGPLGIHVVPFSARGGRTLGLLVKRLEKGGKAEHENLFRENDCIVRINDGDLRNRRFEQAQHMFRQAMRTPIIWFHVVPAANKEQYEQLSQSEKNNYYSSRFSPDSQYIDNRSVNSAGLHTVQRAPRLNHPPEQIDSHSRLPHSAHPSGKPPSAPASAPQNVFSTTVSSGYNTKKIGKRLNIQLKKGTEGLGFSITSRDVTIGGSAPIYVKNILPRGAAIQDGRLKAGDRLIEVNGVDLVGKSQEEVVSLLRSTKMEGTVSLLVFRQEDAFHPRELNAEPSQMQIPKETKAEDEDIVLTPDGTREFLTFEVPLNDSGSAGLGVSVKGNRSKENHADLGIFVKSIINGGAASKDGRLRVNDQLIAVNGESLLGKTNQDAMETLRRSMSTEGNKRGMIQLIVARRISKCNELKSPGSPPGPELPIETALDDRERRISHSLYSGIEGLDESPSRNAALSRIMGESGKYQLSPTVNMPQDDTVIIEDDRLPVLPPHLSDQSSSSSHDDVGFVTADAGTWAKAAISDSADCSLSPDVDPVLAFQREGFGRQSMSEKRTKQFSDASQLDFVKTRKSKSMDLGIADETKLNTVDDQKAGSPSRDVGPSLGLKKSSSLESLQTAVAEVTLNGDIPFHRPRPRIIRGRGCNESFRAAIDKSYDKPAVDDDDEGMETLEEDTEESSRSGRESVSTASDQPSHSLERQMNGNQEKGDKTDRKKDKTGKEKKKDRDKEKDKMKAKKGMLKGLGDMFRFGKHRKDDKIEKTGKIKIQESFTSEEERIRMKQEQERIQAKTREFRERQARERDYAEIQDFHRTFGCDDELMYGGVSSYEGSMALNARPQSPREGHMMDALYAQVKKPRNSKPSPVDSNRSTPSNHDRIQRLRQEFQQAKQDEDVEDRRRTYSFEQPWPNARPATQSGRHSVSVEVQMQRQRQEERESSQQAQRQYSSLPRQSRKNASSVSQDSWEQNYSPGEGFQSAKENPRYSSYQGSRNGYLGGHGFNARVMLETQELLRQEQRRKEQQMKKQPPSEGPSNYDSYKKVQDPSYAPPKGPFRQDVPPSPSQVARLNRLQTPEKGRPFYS

## LNETTETQRTLLNGDLQTSI (Biotin-LNETTETQRTLLNGDLQTSI) [SSTR2 (somatostatin recepor 2)]
[1]; PDZ KIAA1719, PDZ Domain 6
  Classification: 1 (A450 nm 0-1)

## CC[C@H](C)[C@H](NC(=O)[C@H](C)NC(=O)[C@H](CC(C)C)NC(=O)[C@H](Cc1c[nH]c2ccccc12)NC(=O)[C@H](Cc1c[nH]cn1)NC(=O)[C@H](CCC(N)=O)NC(=O)[C@H](CC(C)C)NC(=O)[C@H](CCC(N)=O)NC(=O)[C@H](Cc1ccccc1)NC(=O)[C@H](CCC(N)=O)NC(=O)[C@H](CCCNC(=N)N)NC(=O)[C@@H](NC(=O)[C@H](CC(=O)O)NC(=O)[C@H](CCCNC(=N)N)NC(=O)[C@H](CCC(N)=O)NC(=O)[C@H](C)NC(=O)[C@@H](NC(=O)[C@H](CC(C)C)NC(=O)[C@H](Cc1c[nH]cn1)NC(=O)[C@H](Cc1c[nH]cn1)NC(=O)CCCC[C@@H]1SC[C@@H]2NC(=O)N[C@@H]21)C(C)C)[C@@H](C)CC)C(=O)O [noradrenaline transporter] (Biotin-HHLVAQRDIRQFQLQHWLAI-OH; C-terminus assumed)
[2]
  Classification: 4 (A450 nm 3-4)
[1]; PDZ KIAA1719, PDZ Domain 5
  Classification: 2 (A450 nm 1-2)
[1]; PDZ KIAA1719, PDZ Domain 6
  Classification: 2 (A450 nm 1-2)

## A2AC_HUMAN (Modified) (Biotin-DFRPSFKHILFRRARRGFRQ; not fully specified)
[1]; PDZ KIAA1719, PDZ Domain 3
  Classification: 5 (A450 nm of 4 more than 2× repeated)

## CKR5_HUMAN (ERASSVYTRSTGEQEISVGL)
[1]; PDZ KIAA1719, PDZ Domain 2
  Classification: 1 (A450 nm 0-1)
[1]; PDZ KIAA1719, PDZ Domain 5
  Classification: 1 (A450 nm 0-1)
[3]
  Classification: 1 (A450 nm 0-1)

## ELLQFCRTPNPALKNGQYWV (Biotin-ELLQFCRTPNPALKNGQYWV)
[2]
  Classification: 3 (A450 nm 2-3)
[1]; PDZ KIAA1719, PDZ Domain 6
  Classification: 5 (A450 nm of 4 more than 2× repeated)

## PYSELNYETSHYPASPDSWV (Biotin-PYSELNYETSHYPASPDSWV) [catenin - delta 2]
[2]
  Classification: 1 (A450 nm 0-1)

## ALVLIAFCIIRRRPSAYQAL (Biotin-ALVLIAFCIIRRRPSAYQAL) [CD68]
[1]; PDZ KIAA1719, PDZ Domain 3
  Classification: 1 (A450 nm 0-1)
[1]; PDZ KIAA1719, PDZ Domain 6
  Classification: 1 (A450 nm 0-1)

## CC[C@H](C)[C@H](NC(=O)[C@H](Cc1ccc(O)cc1)NC(=O)[C@H](CC(C)C)NC(=O)[C@H](CCC(N)=O)NC(=O)[C@H](Cc1c[nH]cn1)NC(=O)[C@H](CO)NC(=O)[C@H](C)NC(=O)[C@H](CC(C)C)NC(=O)[C@@H](NC(=O)[C@H](CC(=O)O)NC(=O)[C@H](CCSC)NC(=O)[C@H](Cc1ccccc1)NC(=O)[C@@H]1CCCN1C(=O)[C@H](CCCNC(=N)N)NC(=O)[C@@H](NC(=O)[C@H](CC(C)C)NC(=O)[C@H](CC(N)=O)NC(=O)[C@H](CC(=O)O)NC(=O)[C@@H](NC(=O)[C@H](CO)NC(=O)CCCC[C@@H]1SC[C@@H]2NC(=O)N[C@@H]21)[C@@H](C)O)C(C)C)[C@@H](C)O)C(=O)O [presenilin-2] (Biotin-STDNLVRPFMDTLASHQLYI-OH; C-terminus assumed)
[2]
  Classification: 5 (A450 nm of 4 more than 2× repeated)

## A2AA_HUMAN (modified) (Biotin-HDFRRAFKKILARGDRKRIV; not fully specified)
[2]
  Classification: 2 (A450 nm 1-2)
[1]; PDZ KIAA1719, PDZ Domain 4
  Classification: 3 (A450 nm 2-3)

## CC(C)C[C@H](NC(=O)[C@H](C)NC(=O)[C@H](CO)NC(=O)CNC(=O)[C@@H](NC(=O)CCCC[C@@H]1SC[C@@H]2NC(=O)N[C@@H]21)[C@@H](C)O)C(=O)N[C@@H](CCC(N)=O)C(=O)N[C@@H](C)C(=O)N[C@@H](Cc1c[nH]c2ccccc12)C(=O)N[C@@H](CCCNC(=N)N)C(=O)N[C@@H](Cc1c[nH]cn1)C(=O)N[C@H](C(=O)N[C@@H](CO)C(=O)N[C@@H](CCCNC(=N)N)C(=O)N[C@@H](CCC(N)=O)C(=O)N[C@@H](C)C(=O)N[C@H](C(=O)N[C@@H](CCC(=O)O)C(=O)N[C@@H](CO)C(=O)N[C@H](C(=O)N[C@H](C(=O)O)C(C)C)[C@@H](C)O)[C@@H](C)O)[C@@H](C)O [HPV E6 #66 (modified)] (Biotin-TGSALQAWRHTSRQATESTV-OH; C-terminus assumed)
[3]
  Classification: 2 (A450 nm 1-2)

## KTMPAAMFRLLTGQETPLYI (Biotin-KTMPAAMFRLLTGQETPLYI) [MINT-2]
[2]
  Classification: 5 (A450 nm of 4 more than 2× repeated)

## CC[C@H](C)[C@H](NC(=O)[C@H](Cc1ccc(O)cc1)NC(=O)[C@@H](NC(=O)[C@@H]1CCCN1C(=O)[C@H](CCC(N)=O)NC(=O)[C@H](CCC(=O)O)NC(=O)[C@H](CCC(N)=O)NC(=O)[C@H](C)NC(=O)[C@@H](NC(=O)[C@H](CC(C)C)NC(=O)[C@H](CC(C)C)NC(=O)[C@H](CCCNC(=N)N)NC(=O)[C@H](Cc1ccc(O)cc1)NC(=O)[C@H](CCSC)NC(=O)[C@H](C)NC(=O)[C@H](C)NC(=O)[C@@H]1CCCN1C(=O)[C@H](CCSC)NC(=O)[C@@H](NC(=O)[C@H](CCCCN)NC(=O)CCCC[C@@H]1SC[C@@H]2NC(=O)N[C@@H]21)[C@@H](C)O)[C@@H](C)O)C(C)C)C(=O)O [MINT-1] (Biotin-KTMPAAMYRLLTAQEQPVYI-OH; C-terminus assumed)
[2]
  Classification: 5 (A450 nm of 4 more than 2× repeated)

## VHDAESSDEDGYDWGPATDL (Biotin-VHDAESSDEDGYDWGPATDL) [zona occludens 3 (ZO-3)]
[2]
  Classification: 1 (A450 nm 0-1)

## CC[C@H](C)[C@H](NC(=O)[C@H](CO)NC(=O)[C@@H](NC(=O)[C@H](Cc1ccccc1)NC(=O)[C@H](CO)NC(=O)CCCC[C@@H]1SC[C@@H]2NC(=O)N[C@@H]21)[C@@H](C)O)C(=O)N[C@@H](CC(C)C)C(=O)N[C@H](C(=O)N[C@@H](CS)C(=O)N[C@@H](Cc1c[nH]cn1)C(=O)N[C@@H](CCC(N)=O)C(=O)N[C@@H](CCCNC(=N)N)C(=O)N[C@@H](CCCNC(=N)N)C(=O)N[C@H](C(=O)N[C@@H](CCC(N)=O)C(=O)N[C@@H](CCCNC(=N)N)C(=O)N[C@@H](CCCCN)C(=O)N[C@@H](CCC(=O)O)C(=O)N[C@H](C(=O)N[C@H](C(=O)N[C@@H](C)C(=O)O)C(C)C)[C@@H](C)O)[C@@H](C)O)[C@@H](C)O [GluR5-2 (rat)]
[1]; PDZ KIAA1719, PDZ Domain 3
  Classification: 1 (A450 nm 0-1)

## TQGFPGPATWRRISSLESEV
[3]
  Classification: 4 (A450 nm 3-4)

## CSCC[C@H](NC(=O)[C@H](C)NC(=O)[C@H](CCCNC(=N)N)NC(=O)CNC(=O)[C@@H](NC(=O)[C@H](Cc1c[nH]c2ccccc12)NC(=O)[C@H](CCCNC(=N)N)NC(=O)CNC(=O)CCCC[C@@H]1SC[C@@H]2NC(=O)N[C@@H]21)[C@@H](C)O)C(=O)N[C@@H](CO)C(=O)N[C@@H](C)C(=O)N[C@@H](Cc1c[nH]c2ccccc12)C(=O)N[C@@H](CCCCN)C(=O)N1CCC[C@H]1C(=O)N[C@H](C(=O)N[C@@H](CCCNC(=N)N)C(=O)N[C@@H](CCCNC(=N)N)C(=O)N[C@@H](CCC(=O)O)C(=O)N[C@H](C(=O)N[C@@H](CCC(=O)O)C(=O)N[C@H](C(=O)O)C(C)C)[C@@H](C)O)[C@@H](C)O [HPV E6 #35 (modified)] (Biotin-GRWTGRAMSAWKPTRRETEV-OH; C-terminus assumed)
[1]; PDZ KIAA1719, PDZ Domain 5
  Classification: 1 (A450 nm 0-1)
[3]
  Classification: 4 (A450 nm 3-4)

## CC[C@H](C)[C@H](NC(=O)[C@H](CCC(N)=O)NC(=O)CCCC[C@@H]1SC[C@@H]2NC(=O)N[C@@H]21)C(=O)N[C@@H](CO)C(=O)N1CCC[C@H]1C(=O)NCC(=O)NCC(=O)N[C@@H](CC(C)C)C(=O)N[C@@H](CCC(=O)O)C(=O)N1CCC[C@H]1C(=O)N1CCC[C@H]1C(=O)N[C@@H](CO)C(=O)N[C@@H](CCC(=O)O)C(=O)N[C@@H](CCCCN)C(=O)N[C@@H](Cc1c[nH]cn1)C(=O)N[C@@H](Cc1ccccc1)C(=O)N[C@@H](CCCNC(=N)N)C(=O)N[C@@H](CCC(=O)O)C(=O)N[C@H](C(=O)N[C@@H](CCC(=O)O)C(=O)N[C@H](C(=O)O)C(C)C)[C@@H](C)O [Tax]
[3]
  Classification: 2 (A450 nm 1-2)
